Reference: IntAct's records for PubMed 15772280

B1: BTB/POZ domain-containing protein At1g21780 (Arabidopsis thaliana (Mouse-ear cress)), Q9XHZ8 (parent)
chain: MGDTKVETISRLAQWRIENFGPCSFKKSDPFKVGIWNWHLSIERNRYLSVRLFPELSRVSKEQPPVAKFVLRVSNVGPNRRFYISPVYEKLLRTTDDCVWHVDSSFHGRFTIDVEFLDLKICPVNGGEASPVWPTDATMQSISTQTTLKCLSRMLEESILTDVIIHTADGTLSAHKAILSASSTVFKSMFHHDLMEKESSTIHIDDMSRESCMALLSYLYGNITQEEFWKHRLALLGAANKYDITDLKAACEESLMEDINSSNVLERLQEAWLYQLEKLKKGCLMYLFDFGKIYDVREEISSFFRQADRELMLEMFQEVLSVWKPV
partner: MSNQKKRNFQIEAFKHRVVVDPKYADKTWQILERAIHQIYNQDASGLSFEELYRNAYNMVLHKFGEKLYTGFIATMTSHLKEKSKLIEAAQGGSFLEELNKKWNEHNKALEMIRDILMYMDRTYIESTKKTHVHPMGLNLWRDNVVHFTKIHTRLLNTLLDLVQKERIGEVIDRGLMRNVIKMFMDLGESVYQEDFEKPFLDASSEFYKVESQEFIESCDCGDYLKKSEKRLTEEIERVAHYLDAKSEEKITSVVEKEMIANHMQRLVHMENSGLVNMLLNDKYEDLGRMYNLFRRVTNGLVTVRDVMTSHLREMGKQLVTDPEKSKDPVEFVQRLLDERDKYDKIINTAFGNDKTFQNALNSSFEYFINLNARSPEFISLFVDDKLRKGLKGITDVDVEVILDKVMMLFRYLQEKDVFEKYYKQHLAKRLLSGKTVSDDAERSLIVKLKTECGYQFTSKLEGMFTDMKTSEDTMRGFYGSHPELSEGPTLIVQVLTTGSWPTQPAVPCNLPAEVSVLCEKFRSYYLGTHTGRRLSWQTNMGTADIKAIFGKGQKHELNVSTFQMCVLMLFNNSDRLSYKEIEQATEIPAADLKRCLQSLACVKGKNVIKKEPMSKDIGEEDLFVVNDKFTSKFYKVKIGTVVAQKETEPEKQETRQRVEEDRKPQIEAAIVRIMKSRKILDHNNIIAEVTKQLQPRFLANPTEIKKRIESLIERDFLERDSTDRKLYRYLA
B2: Cullin-3A (Arabidopsis thaliana (Mouse-ear cress)), Q9ZVH4 (parent)
chain: B1 partner
partner: B1 chain

Variants of: B1
Details: with cul3a_arath CUL3A, Q9ZVH4

Variant	effect of a mutation on the interaction
I204R	decreasing interaction
Y242A	decreasing interaction

Variants of: B2
Details: with y1178, Q9XHZ8

Variant	effect of a mutation on the interaction
S48A	decreasing interaction
F49A	decreasing interaction
